# Source: article PMC4768490 (Structure (London, England : 1993), 2015)
# Where a chain is given by its changes, count along the chain named. Names and notes keep the numbering of the source.
# B1: MBP-tagged h1NLS (MBP-h1NLS), wild type (peptide, UniProt Q03707 171-221, looked up)
# chain: DTRKKRKDPDSDDWSESNSKENKIDNKHLNLLSSDSEIEQDYQKAKKRKTS
# B2: MBP-h1NLS with Ala-mutations at positions P2' and P2 (R176A, K190A) (peptide, UniProt Q03707 171-221, looked up)
# chain: B1 chain with R6A, K20A
# B3: MBP-h1NLS with Ala-mutation at position P2 (K190A) (peptide, UniProt Q03707 171-221, looked up)
# chain: B1 chain with K20A
# B4: MBP-h1NLS with Ala-mutation at position P2' (R176A) (peptide, UniProt Q03707 171-221, looked up)
# chain: B1 chain with R6A
# B5: MBP-tagged h2NLS (MBP-h2NLS), wild type (peptide, UniProt Q03281 100-137, looked up)
# chain: TNKRKREQISTDNEAKMQIQEEKSPKKKRKKRSSKANK
# B6: MBP-h2NLS with Ala-mutations at positions P2' and P2 (R103A, K126A) (peptide, UniProt Q03281 100-137, looked up)
# chain: B5 chain with R4A, K27A
# B7: MBP-h2NLS with Ala-mutation at position P2 (K126A) (peptide, UniProt Q03281 100-137, looked up)
# chain: B5 chain with K27A
# B8: MBP-h2NLS with Ala-mutation at position P2' (R103A) (peptide, UniProt Q03281 100-137, looked up)
# chain: B5 chain with R4A
# B9: MBP-Nup2 (res. 1-51) (domain or fragment, S. cerevisiae, UniProt P32499 1-51, looked up)
# chain: MAKRVADAQIQRETYDSNESDDDVTPSTKVASSAVMNRRKIAMPKRRMAFK
# Biological target: Kap60 lacking the IBB (ΔIBB-Kap60) (S. cerevisiae) (UniProt Q02821)
# Assay: ITC
row,Molecule,Kd [µM]
1,"nucleoplasmin bipartite NLS (NP-NLS), control (peptide)",0.046

# Biological target: T1, Kap60 lacking the IBB (ΔIBB-Kap60) (S. cerevisiae, UniProt Q02821 88-509)
# T1 sequence: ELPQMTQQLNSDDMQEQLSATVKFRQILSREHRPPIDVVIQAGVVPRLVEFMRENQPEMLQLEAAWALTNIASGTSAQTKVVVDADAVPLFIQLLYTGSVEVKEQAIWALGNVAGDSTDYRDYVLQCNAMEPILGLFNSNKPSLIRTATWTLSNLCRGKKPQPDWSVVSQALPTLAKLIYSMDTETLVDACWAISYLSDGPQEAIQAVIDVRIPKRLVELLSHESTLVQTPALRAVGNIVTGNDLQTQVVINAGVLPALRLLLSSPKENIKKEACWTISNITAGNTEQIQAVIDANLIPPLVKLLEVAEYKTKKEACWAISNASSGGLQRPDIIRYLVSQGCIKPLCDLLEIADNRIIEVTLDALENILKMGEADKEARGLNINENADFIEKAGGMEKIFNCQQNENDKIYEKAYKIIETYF
# Assay: ITC
row,Molecule,Kd [µM]
1,B1,0.0305 ± 0.01
2,B2,0.14 ± 0.026
3,B3,0.0686 ± 0.014
4,B4,0.123 ± 0.0086
5,B5,0.0273 ± 0.008
6,B6,0.168 ± 0.032
7,B7,0.106 ± 0.015
8,B8,0.132 ± 0.027

# Biological target: T1, Kap60 lacking the IBB (ΔIBB-Kap60)
# Assay: pull-down
row,Molecule,percent of the ΔIBB-Kap60:h2NLS complex dissociated at 10-fold excess of Nup2 [%]
1,B9,60
